Measurements reported in patent US12577536B2, “Method for isolating ureteric bud tip cells” (KYOTO UNIVERSITY, priority 2019, dated 2026).

Tested on: tip cell colonies
Assay: Reconstitution of iUB organoids from tip cell colonies
Type: cell-based, human
Conditions: organoid medium with Wnt3a conditioned medium and R-spondin 1 in place of CHIR99021
Procedure: Hydrogel was dissolved with Cell Recovery Solution (BD Biosciences) for 1 h at 4° C. to detach day 7 tip cell colonies. After washing with additional Cell Recovery Solution, the tip cell colonies were centrifuged at 500 g for 5 min at room temperature. Essential 6 medium containing 0.1 μM LDN193189, 100 ng/ml GDNF, 0.1 μM TTNPB, 200 ng/ml FGF8, 1 μM CHIR99021 or 10% Afamin/Wnt3a conditioned medium (MBL), 200 ng/ml R-spondin 1 (R&D systems), 50 ng/ml EGF, 200 ng/ml FGF1 and 10% Matrigel was applied to the tube including tip cell colonies. After pipetting gently with a wide-mouth micropipette (BMBio) not to break colonies, the suspension was distributed to low-attachment 35 mm dish (Sumitomo Bakelite) at 2 mL/dish. The medium was refreshed every 2 days. On day 4, each colony was placed onto one well of low-attachment 96-well plates in the same medium. After an additional 6 days, the tip region was separated from the reconstituted iUB organoid and treated with the same medium for 35 days.

B1: R-spondin 1: Wnt signaling activator (R&D systems) (protein, UniProt Q2MKA7 21-263, looked up)
R-spondin-1: SRGIKGKRQRRISAEGSQACAKGCELCSEVNGCLKCSPKLFILLERNDIRQVGVCLPSCPPGYFDARNPDMNKCIKCKIEHCEACFSHNFCTKCKEGLYLHKGRCYPACPEGSSAANGTMECSSPAQCEMSEWSPWGPCSKKQQLCGFRRGSEERTRRVLHAPVGDHAACSDTKETRRCTVRRVPCPEGQKRRKGGQGRRENANRNLARKESKEAGAGSRRRKGQQQQQQQGTVGPLTSAGPA
- reconstitution of iUB organoids from tip cell colonies: iUB organoids could be reconstituted from tip cell colonies derived from any iPS cell lines
